In the DeepSol protein solubility set:

Test: soluble on expression in E. coli; label from the status in PepcDB or PDB records

Sequence | soluble on expression in E. coli
MSLDMKEWEIFYNKIMEDFGFDKDKDVESAVILNNILENANTIPVDKLKDIIEGREVFIFGAGPSIKKHINILKELREINYKNPIIVADGACKAFLEENIIPDIIVSDLDGDLEALFECNRKGSIIVVHAHGDNIEKIKKYVPKLKNVVGSCQIPNYKELNLRNVINFGGFTDGDRCCFLAYHFKAKKLILGGMDFGIYITKYSRPNIKEDIAIGDEIKIKKLEYAKTLINYLKDKIEIEFLKEGHHHHHH | soluble
MGSDKIHHHHHHMATSIETSFPDAPSTTPVLEMQGITKRFHGVSALQNVNLTIYPGEVHALMGENGAGKSTLMKILAGAYIADEGEIRINGQPLKITDPATARKAGINLIYQELNVAPNLTVTENMFMGSELRRGQFLDRKAMQLEAEQVLDSLGANFTAQTIVGTLSIAEQQQVEIARALKDKSRVLVMDEPTAALSDRESDHLFEVIRKLRSDGIAIIYISHRMEEIYALADRISVLRDGQYIGSLTRSEISPQRLVQMMVGRSMQDFYEHQRQMNPGPVVLEVRNMSDARKKIEPASFELHAGEILGLAGLVGAGRTELSRLIFGADRKASGEVFLNGKKLEINTPSDAIAAGIGYVPEDRKDQGLFLEMSARKNIAINTLKQDAKGGIVNWPSVNRLSTEAVENFNIRLANLEIRALDLSGGNQQKLLLARWLAIKPRVLMLDEPTRGVDIGAKSEIYRIMSELAAQGVAILMVSSELSEIVGMSDRVLVMREGQLVGELDGSLGKEITQEKIMHYATGASEVSAL | not soluble
FFALDYKRTEYVQYEDDEYYYYVKAVPKLNVASEDVRIKHINAKKTKKTSDIRDMKKTSSHRAESGYQAASAEEDDDILFYDNDDK | not soluble
MSLDRSNTVELHAAGAQSAQGARPDQEDEYIILTPGGSPNEIGDSIAFFAVFDGHGTGIVSNHAKEHIPLLLFESDEFRSGNYERAMQAAIDKEDELLLQGFREGQNFFATSGSTASLALVDMKNGVLVVGNIGDSHILMAERDPENGQVKSIERLTTSHKPESADEKARIEKAGGHVHSHHDISRIGSLNMSRALGDLQYKTPLISAAAAPKTEGQKFACAPDPQNVSSQDGAQAGTGRDDFITVEMSFRRIDLHKEKQYLLALTTDGVTNALDDGKIMNGIAEMFNTGSKADEVARKVVDQAASTEYADNATCVTVFLNGTEARLAEGHHHHHH | soluble
MPLEEGVLIDCTLGLGGHSKALLSQKPHLKLIGIDKDKFAQEIAKERLKAFEGRYNLLSGGFAKRFKEALETHNKEIKGVLVDLGVSSLQLDDDNRGFNFHSHTLDMRMDLESELNAQKVINSYPIVALEKIFRDYGEIKEYKKIAHKIAERRAKKPFKNAKDLSEFLSSFSKNKKIHPATLVFQAVRIEVNSELEELKEFLQCARNLKGAILCVISFHSLEDALVKNAFKDYAKNCICDPSSFKCACSNNHALGEILTKKPITPSPEEIKNNRRSRSAKMRVFQFKPLEHHHHHH | not soluble
MGSDKIHHHHHHMKKKIIHTLVYNYEIPVSLEEHLICLKPRSNSFQELSNFDLQIFPSPYSIFPLLSDNGDDIFKLLFTGSTNSLKIKTESDIETNIHPDLYQLKNDYDLSLPLKIESNDSLIGFIKGWFPNGQHDPAAIRIAQEALAGINNNVLDFLYHLIELIKDRVKYTPRHIGPAWTSGRTLSERVGSCRDLAILLMETCRCVGIPSRFVSGYQFMDQAPDKYELHAWTEVYIPGFGWRGFDPSGCGLINHNYVALASSSKSELVAPLRGSFVGPSNLKSELEWKIDIT | not soluble
MGSDKIHHHHHHMTREYGTGEIFHQMGDRVDALHYVLEGHVVAKAVTPEGVERYVLGFLPGTIFGQSPFFNRAPAETLFVSVGHTVAVALGRDYIYGEVAQRHPSLLLNLLESDAYRHRVFGRHIADATLRDLETRLCRFILHLVTEASDPVPVEQALTDAAAEVHPRTGDEGAEGPADCPARCHSGASALFSHPGLTHEDVARYLGLHRVTVSNLLGGLRRAGVLGQFNRKVIEVCDGAELVARAGMSGDGDRWP | not soluble
NEAPIDMHGGKSAKIERQSVENSAQKENSKSAILERLKRLREYSKDHLKAFQRLQVQDFDGRIKPLDTISIEYIHKILKKDDFQGLNAMQVLLGIMFFPNDWRSIKMIYTSTKALRKLIGTPLDESRIAFRDAFDSRGYKLKNLVEEVNQKSPNARNELDKDVLKVDERINLVYTLFSAQFLRIFPSDKTTAWLSPIEAISSPNKEISSVATEFLKNIFSGFDDALKTNQWDKVEKTLKDLSIYQKEHAKNLYLSSSKVDSEIFLNHTNFFNRLT | not soluble
MGSDKIHHHHHHMHRVGFTTTIPLEIVLAAGMTPVDLNNVFITSPHATRMIEEAEVDGFPRSICGWIKGIYAAVVECGIHELIAVTEGDCSNTRALMEVLSLKGVETIPFAYPHDRDPAGLRFEIEKLMRRFGVGWDAVKLSRERLGRIRRKVKEIDRLTWDENRVSGQENHYFQVCTSDMNSDPDRFEAEVDAFLEKARQREPFRQRLRLAYIGVPPIMTDLYPFVETLDARVVFNETQRQFAMPFDTPDLVEQYRAYTYPYDIFHRLSDILMELERRKVDAVIHYVQSFCFRQIEDMIVRQKLPLPVLTLEGDKPGPLDARTRIRIEGFLEMLA | not soluble
MGHHHHHHSHMGKKIKKEVEPPPKDVFDPLMIESKKAATVVLMLNSPEEEILAKACEAIYKFALKGEENKTTLLELGAVEPLTKLLTHEDKIVRRNATMIFGILASNNDVKKLLRELDVMNSVIAQLAPEEEVVIHEFASLCLANMSAEYTSKVQIFEHGGLEPLIRLLSSPDPDVKKNSMECIYNLVQDFQCRAKLQELNAIPPILDLLKSEYPVIQLLALKTLGVIANDKESRTMLRDNQGLDHLIKILETKELNDLHIEALAVIANCLEDMDTMVQIQQTGGLKKLLSFAENSTIPDIQKNAAKAITKAAYDPENRKLFHEQEVEKCLVALLGSENDGTKIAASQAISAMCENSGSKDFFNNQGIPQLIQLLKSDNEEVREAAALALANLTTCNPANANAAAEADGIDPLINLLSSKRDGAIANAATVLTNMAMQEPLRLNIQNHDIMHAIISPLRSANTVVQSKAALAVTATACDVEARTELRNSGGLEPLVELLRSKNDEVRKHASWAVMVCAGDELTANELCRLGALDILEEVNVSGTRKNKFSEAAYNKLLNNNLSLKYSQTGYLSSSNIINDGFYDYGRINPGTKLLPLKEL | not soluble
MQSTPKPFDIEQPSLRVFLPAPELATGRAVVACPGGGYSGLAVNHEGYDWAPYFNKQGIALIVLKYRMPKGDRTLPISDAEAAMKMVRDSADVWNLNPNDIGIMGSSAGGHLASTIATHAPEALRPNFQILFYPVITMDKSFTHMGSHDNLLGKDASADLEKEFSNEKQVTKETPRAFIVYSDDDKVVPPANGVNYYLALNKKGVPSVLHIYPTGGHGWGIREDFLEHHHHHH | not soluble
MGSDKIHHHHHHMLFWSTVDLGLTFMATSSTLAFDSSNRIDDVKIVIKGYEFGPAVPKLVVKLNQKISKVSTKDLKVETAGVKRQIKKVYLSDKNSQKSTKKEGDYLTIQMPVTYNVDDSSKNASPFVYNTDVFQNQWVKTYPVSIKGLTVSYKGKSTNNLTSKSDAINKRVSPDSEVFTNRGSFSGNYTNPLTKKNEKVDLQYAAYEPKKLQSGNKNPLIIWLHGQGEGGTDPDITLLGNKVTALIKEDIQNHFKSGNQKGTYVLTVQAPTYWMDEGDGSNGQGAGTSRYTEVLMDAIKKYVAKIT | not soluble
MSLYKILLADDERIILDGMAGIIEWESLGASLIGKAQNGHEAYEKIVHKQPHIVITDVKMPGMDGLELIKKVSAVSPSVQFIVLSGFGEFEYAKEAMKYGVKHYLLKPCNEQQIISSLEEIIAELKRQDVHKKKTAHLKHELDHIRSFAADQYLEGLIAGVAQLSPPPSLAGKKIRLLILKGEQSIDAAAREALGSALTAVCSSGEWTVLAVEENAAEKVAEVFADRKMAISQAGELRHAGQLFRDTAEASGDLHGSAVISKMIRLIADELGNPNLSLKWAAKDMLFMNPDYLGKLFKQETGEKFSQYVTRVRLEHAMKQMKIRRDVSVSEIAEEIGFGDNPKYFSLVFKKYTGLTPSEFRRKQGGASAGEGHHHHHH | soluble
MPQVAGGRPRPPRGFRDFPPEVMILRKRLLSRLERVFESYGFDPLDTPAVEYWETLSGKYGEEAESRLIWRFQDPWSGRWYALRYDLTVPLARFVASNPGLPMPFKRYHIGKVWRHEEPQKGRYREFVQCDADIVGSPYPEADAEIVSLAVDSIDALGLPGFRVRVNDRRLLAGVFEEELGFDNPLPIYRAIDKLDKIGVEGVRRELERLGLPGSTVERIMEIISWRGRPGEVLESVRRGYGSNEKVREALDHLEEMLSLADDKRVELDMSLVRGLDYYTGPILEVVLDEPRIGSVAGGGRYDGLVGMFAGRDIPATGVSIGIERIIDAGLELGVYSLDVKTVAQVAVVVLDRRYYRYAWEAARILRRGGLNVRIDLSRASGQVQRRKASRLGIPVLAFVGAKEAEGGFLTLYSAAKGERVAVPLGEAVKAVERLLPS | soluble
MSLTTMKEIAEQTGVSISTVSLVLNGRDEGRVNPALAKLVRNKATELGYKINPLARSLRTNKTRILGFISEEVATTPYAGGIILGAQDAASAYGYMLFTVSTDGKASEENEIATLKRYGVDGFFYSKMSNRIAHVPESLSDYPVVMVDATDYENKVPSVEPDEFMIGYDATIRLLQADCKRIAYVGCAENMIAQDGRLAGYCTALQEAGRAFNPSLVCNVMNDGPALRAVNKLFDDEHPDGFFCFNDARAWYVYECAARRGLTVGKDISVVGVDNHRVFAETLEPQLTTVELPHYEMGYWSACKLISMIEGKDVDTSSCPSARASLPPLDAPIPAKIHCALLEKDSVISEGHHHHHH | soluble
MGSDKIHHHHHHMSEQMFEGWNGAIVVTPETVKIIYGNQHSKGEGEKEITLESIQSIELKKPRFLAQGYIQLILEGSKKKKGALAAMGDEHSIMINDEAQYKQFEQAKELIELFQHEQKLVSEQNEKGEGWREDVFKGGNGTLVVTPETIKIIYSWLHTRGRGEKTINIRSISSIQLKEPAVVAGYIQFTFQGSIENQSRSSFSAIDDQNTIAISNKHQFEDFKRAKALIESYQNQLYAPQIQSSSTSGADELKKYKELLDDGIISEEEFNAKKKQILGI | not soluble
MGSDKIHHHHHHMHMKLDDITYMNPWWEGKEDYHVKQWEKQKVHWEPKWIREISLKPFSLNFVLGPRQVGKTTGIKLLIQKILEENPPESVLYLNLEILPTYRELLDIIREFQELKKEEGIKTGYIFLDEASSLEGWWRGVKPLIDSGLLENDVITVTGSSSLRVRRDIELFPGRRGGGKTLEVMPLSFPEYARVMGLKKHKLEGSKVIKLFEKYIQTGGFPGSINGFPMEDLLGAYIGEFVRFGKSLEIAKEIFSALIRSAPSATSFRALAEMTSGYSYKVVQDYIEFFRDLYILGMAYLKQGNQVMYRREKKFFFRDPLLAKLFSLWSGTEIGKDALYEWIVQEHVFRKFGEIHYFRNSYEIDIIASDMKIEVKAGKAHRKYPRGVKVLEKEDVPFFLIELYNEDC | not soluble
MSLEAVIFDMDGVLMDTEPLYFEAYRRVAESYGKPYTEDLHRRIMGVPEREGLPILMEALEIKDSLENFKKRVHEEKKRVFSELLKENPGVREALEFVKSKRIKLALATSTPQREALERLRRLDLEKYFDVMVFGDQVKNGKPDPEIYLLVLERLNVVPEKVVVFEDSKSGVEAAKSAGIERIYGVVHSLNDGKALLEAGAVALVKPEEILNVLKEVLEGHHHHHH | soluble
MSNIIKQLEQEQLKQNVPSFRPGDTLEVKVWVVEGSKRRLQAFEGVVIAIRNRGLHSAFTLRKVSNGVGVERVFQTHSPAVDSIAVKRKGAVRKAKLYYLRERSGKSARIKERLGALEHHHHHH | not soluble
MSSSSESDSEGERKLPLSYRRKRRRDSSSTTNSEVSDNDRKKRQNEKRRSRESSKMKHQKTAKRDKPMWKEEGEISCDSESDVCNSSSSNNRSRCRDRRRRTDYGRRRHRNSDSRSHERWSTRRRQTTPEGNFRCDECGCNHYTLKGLIHHEMNDHNLNAKCHLCQKSFENKKTFREHCELDHTPEVVRCVFCKSSFDQPLEMNDEQWAHFFAHIYGEILYSRLADYEDRALNTA | not soluble
